Experiments:
[1] = target: T1, TFPI (tissue factor pathway inhibitor, full-length) (Homo sapiens, UniProt P10646 SEQ:1-276); assay: competition; dot-blot vs radiolabeled ARC17480, 10 nM TFPI; settings: tags: American Diagnostica 4500PC/4900PC, E. coli expressed
Method: Each molecule was evaluated for binding to tissue factor pathway inhibitor (TFPI) in a binding-competition assay. For these experiments, 10 nM human TFPI (American Diagnostica, Stamford, Conn., catalog #4500PC) was incubated with trace amounts of radiolabeled ARC17480 and 5000 nM, 1666.67 nM, 555.56 nM, 185.19 nM, 61.73 nM, 20.58 nM, 6.86 nM, 2.29 nM, 0.76 nM or 0.25 nM of unlabeled competitor aptamer. ARC17480 was included as a competitor in every experiment as a control. For each molecule, the percentage of radiolabeled ARC17480 bound at each competitor aptamer concentration was used for analysis. The percentage of radiolabeled ARC17480 bound was plotted as a function of aptamer concentration and fit to the equation y=(max/(1+x/IC₅₀))+int, where y=the percentage of radiolabeled ARC17480 bound, x=the concentration of aptamer, max=the maximum radiolabeled ARC17480 bound, and int=the y-intercept, to generate an IC₅₀ value for binding-competition. The IC₅₀ of each aptamer was compared to the IC₅₀ of ARC17480 that was evaluated in the same experiment. A substitution was considered tolerated in the binding-competition assay if the IC₅₀ of that molecule was not more than 5-fold greater than that of ARC17480 evaluated in the same experiment. Tolerated substitutions are indicated in Table 37 as meeting the assay criteria (“yes”) or not meeting the assay criteria (“no”).

[2] = target: T1, TFPI (tissue factor pathway inhibitor, …); assay: competition; dot-blot, 10 nM TFPI; settings: tags: American Diagnostica 4500PC/4900PC, E. coli expressed
Method: The substituted ARC17480 molecules were assayed for binding and function. The assays used for this evaluation were the calibrated automated thrombogram (CAT) assay, a dot-blot binding-competition assay and a FXa activity assay. The results of these assays are summarized in Table 40 and depicted in FIG. 147. A mutation was considered tolerated for activity if it met the criteria of at least two of the three assays that were carried out. Mutations that are tolerated (“yes”) and not tolerated (“no”) are identified in Table 40. The experimental details and the criteria used for each assay are described in the following paragraphs. The molecules described in this example were first tested in the CAT assay and the dot-blot binding-competition assay. In most cases, molecules were only tested in the FXa assay if there was a discrepancy between the results in the CAT assay and the dot-blot binding-competition assay.
Each molecule was evaluated for binding to tissue factor pathway inhibitor (TFPI) in a binding-competition assay. […] The IC₅₀ of each aptamer was compared to the IC₅₀ of ARC17480 that was evaluated in the same experiment. A mutation was considered tolerated in the binding-competition assay if the IC₅₀ of that molecule was not more than 5-fold greater than that of ARC17480 evaluated in the same experiment. […]

T1 sequence (P10646 29-304): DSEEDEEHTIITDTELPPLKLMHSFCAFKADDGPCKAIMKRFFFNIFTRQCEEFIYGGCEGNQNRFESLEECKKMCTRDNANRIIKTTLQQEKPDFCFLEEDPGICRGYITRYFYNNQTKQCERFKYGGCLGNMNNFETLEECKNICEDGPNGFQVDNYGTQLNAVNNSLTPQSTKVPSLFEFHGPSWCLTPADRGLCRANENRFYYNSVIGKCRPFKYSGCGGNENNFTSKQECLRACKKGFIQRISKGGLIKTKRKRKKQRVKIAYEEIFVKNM

Binder | binding signal [1] | binding signal [2]
GGAAUAUACUUGGCUCGUUAGGUGCGUAUAUA (XNA, 2'-OMe except dC9, dC16, dC25; 2'-OMe C14; 3' idT) [ARC18539] | ≤ 5 fold IC50 vs ARC17480 | 
AGAAUAUACUUGGCUCGUUAGGUGCGUAUAUA (XNA, 2'-OMe except dC9, dC14, dC16, dC25; 3' idT) [ARC34856] |  | ≤ 5 fold IC50 vs ARC17480

Source: US20110281938, “APTAMERS TO TISSUE FACTOR PATHWAY INHIBITOR AND THEIR USE AS BLEEDING DISORDER THERAPEUTICS” (Baxter Healthcare S.A., published 2011)
